The target of this test is T1, Saccharomyces cerevisiae Fab1p (Saccharomyces cerevisiae, UniProt P34756 1-2278).
T1 construct: Constructs used in the two-hybrid, coimmunoprecipitation and cross-linking experiments are not described; also called PI3P 5-kinase
Nature of the test: yeast two-hybrid; coimmunoprecipitation; cross-linking.

The record followed here is US20050142561A1 (published 2005).

T1 sequence (P34756 whole entry): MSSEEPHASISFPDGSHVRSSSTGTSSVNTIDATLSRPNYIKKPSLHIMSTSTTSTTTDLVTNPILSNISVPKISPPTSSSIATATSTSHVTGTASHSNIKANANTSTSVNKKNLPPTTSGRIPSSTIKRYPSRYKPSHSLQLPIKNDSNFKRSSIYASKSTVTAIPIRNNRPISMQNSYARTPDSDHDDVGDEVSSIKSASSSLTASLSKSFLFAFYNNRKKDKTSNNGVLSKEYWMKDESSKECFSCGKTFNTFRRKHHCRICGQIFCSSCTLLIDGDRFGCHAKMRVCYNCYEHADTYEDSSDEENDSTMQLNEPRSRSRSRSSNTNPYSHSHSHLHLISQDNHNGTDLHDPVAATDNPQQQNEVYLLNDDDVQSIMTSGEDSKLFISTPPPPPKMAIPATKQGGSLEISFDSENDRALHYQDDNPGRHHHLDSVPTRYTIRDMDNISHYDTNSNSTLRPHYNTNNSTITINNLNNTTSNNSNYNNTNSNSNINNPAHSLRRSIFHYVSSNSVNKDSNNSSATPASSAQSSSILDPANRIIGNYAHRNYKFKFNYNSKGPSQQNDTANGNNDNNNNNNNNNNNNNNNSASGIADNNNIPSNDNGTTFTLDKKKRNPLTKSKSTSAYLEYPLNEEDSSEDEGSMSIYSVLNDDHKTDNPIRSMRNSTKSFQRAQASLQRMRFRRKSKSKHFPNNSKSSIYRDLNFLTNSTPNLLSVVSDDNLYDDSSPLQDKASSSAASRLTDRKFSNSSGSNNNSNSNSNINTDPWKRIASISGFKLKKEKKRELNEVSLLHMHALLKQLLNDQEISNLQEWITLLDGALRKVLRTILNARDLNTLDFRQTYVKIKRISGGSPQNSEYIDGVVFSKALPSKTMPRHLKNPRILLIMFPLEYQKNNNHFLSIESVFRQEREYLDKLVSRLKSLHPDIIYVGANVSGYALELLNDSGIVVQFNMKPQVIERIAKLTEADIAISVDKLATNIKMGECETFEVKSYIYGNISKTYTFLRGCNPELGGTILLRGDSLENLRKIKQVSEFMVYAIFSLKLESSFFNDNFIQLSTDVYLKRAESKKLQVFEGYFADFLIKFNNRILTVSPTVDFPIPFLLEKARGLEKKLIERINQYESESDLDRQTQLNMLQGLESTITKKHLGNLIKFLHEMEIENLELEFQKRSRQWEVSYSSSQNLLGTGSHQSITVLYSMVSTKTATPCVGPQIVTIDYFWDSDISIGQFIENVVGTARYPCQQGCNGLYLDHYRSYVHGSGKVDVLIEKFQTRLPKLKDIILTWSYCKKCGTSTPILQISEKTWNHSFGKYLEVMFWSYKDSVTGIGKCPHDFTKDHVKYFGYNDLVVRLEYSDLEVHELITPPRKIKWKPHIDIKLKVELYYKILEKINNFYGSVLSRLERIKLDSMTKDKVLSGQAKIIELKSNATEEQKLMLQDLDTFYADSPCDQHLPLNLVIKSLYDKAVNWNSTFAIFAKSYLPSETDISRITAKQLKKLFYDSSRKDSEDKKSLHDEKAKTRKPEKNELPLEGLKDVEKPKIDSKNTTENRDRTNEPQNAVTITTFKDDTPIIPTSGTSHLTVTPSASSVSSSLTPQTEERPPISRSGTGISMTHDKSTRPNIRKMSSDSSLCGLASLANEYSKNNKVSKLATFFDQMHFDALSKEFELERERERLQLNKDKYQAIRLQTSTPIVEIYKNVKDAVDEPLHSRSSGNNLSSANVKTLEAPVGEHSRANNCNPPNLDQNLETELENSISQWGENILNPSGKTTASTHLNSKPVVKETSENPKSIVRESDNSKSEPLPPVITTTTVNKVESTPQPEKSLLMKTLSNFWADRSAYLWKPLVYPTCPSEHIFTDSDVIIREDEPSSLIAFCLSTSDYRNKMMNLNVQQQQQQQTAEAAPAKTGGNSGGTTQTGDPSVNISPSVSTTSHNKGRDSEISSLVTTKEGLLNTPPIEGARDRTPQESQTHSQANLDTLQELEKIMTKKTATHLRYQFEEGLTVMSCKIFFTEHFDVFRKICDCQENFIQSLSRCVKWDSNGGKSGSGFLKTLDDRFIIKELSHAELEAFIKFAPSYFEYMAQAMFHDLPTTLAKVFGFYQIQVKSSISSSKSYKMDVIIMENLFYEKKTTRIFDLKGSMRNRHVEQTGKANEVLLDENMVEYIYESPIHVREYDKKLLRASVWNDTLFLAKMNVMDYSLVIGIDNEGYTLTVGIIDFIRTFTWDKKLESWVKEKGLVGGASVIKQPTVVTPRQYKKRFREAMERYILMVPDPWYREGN

B1: Saccharomyces cerevisiae Vac14p (other)
chain: MEKSIAKGLSDKLYEKRKAAALELEKLVKQCVLEGDYDRIDKIIDELCRDYAYALHQPMARNAGLMGLAATAIALGINDVGRYLRNILPPVLACFGDQNDQVRFYACESLYNIAKIAKGEILVYFNEIFDVLCKISADTENSVRGAAELLDRLIKDIVAERASNYISIVNNGSHGLLPAIKTDPISGDVYQEEYEQDNQLAFSLPKFIPLLTERIYAINPDTRVFLVDWLKVLLNTPGLELISYLPSFLGGLFTFLGDSHKDVRTVTHTLMDSLLHEVDRISKLQTEIKMKRLERLKMLEDKYNNSSTPTKKADGALIAEKKKTLMTALGGLSKPLSMETDDTKLSNTNETDDERHLTSQEQLLDSEATSQEPLRDGEEYIPGQDINLNFPEVITVLVNNLASSEAEIQLIALHWIQVILSISPNVFIPFLSKILSVLLKLLSDSDPHITEIAQLVNGQLLSLCSSYVGKETDGKIAYGPIVNSLTLQFFDSRIDAKIACLDWLILIYHKAPNQILKHNDSMFLTLLKSLSNRDSVLIEKALSLLQSLCSDSNDNYLRQFLQDLLTLFKRDTKLVKTRANFIMRQISSRLSPERVYKVISSILDNYNDTTFVKMMIQILSTNLITSPEMSSLRNKLRTCEDGMFFNSLFKSWCPNPVSVISLCFVAENYELAYTVLQTYANYELKLNDLVQLDILIQLFESPVFTRMRLQLLEQQKHPFLHKCLFGILMIIPQSKAFETLNRRLNSLNIWTSQSYVMNNYIRQRENSNFCDSNSDISQRSVSQSKLHFQELINHFKAVSEEDEYSSDMIRLDHGANNKSLLLGSFLDGIDEDKQEIVTPISPMNEAINEEMESPNDNSSVILKDSGSLPFNRNVSDKLKK
notes: 880 amino acid polypeptide; In the Western blot it is the endogenous protein of yeast cell extracts; also called Vac14 yeast; YLR386W product
Consider B1, for which the binding result is on record as “no binding”.
